From the supplement of paper PMC11246515 come the findings set out here.

± gives the standard deviation of the averaged measurements.

The nature of this data set: total protein half-life in vivo (active degradation + dilution); higher = more stable protein.
Setting [1] is: E. coli NCM3722 delta-clpP delta-lon delta-hslV, growth: N-lim chemostat, doubling time 6 h.
Setting [2] is: E. coli NCM3722 delta-clpP, growth: N-lim chemostat, doubling time 6 h.
Setting [3] is: E. coli NCM3722 delta-hslV, growth: N-lim chemostat, doubling time 6 h.
Where [4] appears, read: E. coli NCM3722 delta-lon, growth: N-lim chemostat, doubling time 6 h.
[5] abbreviates: E. coli NCM3722 delta-smpB, growth: N-lim chemostat, doubling time 6 h.
The mark [6] stands for this setting: wild type E. coli NCM3722, growth: C-lim chemostat, doubling time 3 h.
Setting [7] is: wild type E. coli NCM3722, growth: C-lim chemostat, doubling time 6 h.
Setting [8] is: wild type E. coli NCM3722, growth: C-lim chemostat, doubling time 12 h.
Setting [9] is: wild type E. coli NCM3722, growth: N-lim chemostat, doubling time 6 h.
Setting [10] is: wild type E. coli NCM3722, growth: N-lim chemostat, doubling time 12 h.
Setting [11] is: wild type E. coli NCM3722, growth: P-lim chemostat, doubling time 6 h.
[12] abbreviates: wild type E. coli NCM3722, growth: P-lim chemostat, doubling time 12 h.

“MINYGVVGVGYFGAELARFMNMHDNAKITCVYDPENGENIARELQCINMSSLDALVSSKLVDCVIVATPNYLHKEPVIKAAKNKKHVFCEKPIALSYEDCVDMVKACKEAGVTFMAGHIMNFFNGVQYARKLIKEGVIGEILSCHTKRNGWENKQERLSWKKMKEQSGGHLYHHIHELDCVQHLLGEIPETVTMIGGNLAHSGPGFGNEDDMLFMTLEFPSGKLATLEWGSAFNWPEHYVIINGTKGSIKIDMQETAGSLRIGGQTKHFLVHETQEEDDDRRKGNMTSEMDGAIAYGHPGKKTPLWLASLIRKETLFLHNILCGAKPEEDYIDLLNGEAAMSAIATADAATLSRSQDRKVKISEIIKHTSVM”: the “total protein half-life in vivo” value by setting is: under setting [1], 5.16 h; under setting [2], 4.32 h; under setting [3], 4.31 ± 0.18 h; under setting [4], 4.79 ± 0.4 h; under setting [5], 4.29 ± 0.068 h; under setting [6], 2.75 ± 0.66 h. The “total protein half-life in vivo” value under setting [7] came to 6.07 ± 0.59 h; the “total protein half-life in vivo” value under setting [8] stood at 11.2 ± 1.7 h; the “total protein half-life in vivo” value under setting [9] is 4.39 ± 0.38 h; the “total protein half-life in vivo” value under setting [10] stood at 7.48 ± 0.85 h; the “total protein half-life in vivo” value under setting [11] worked out at 6.27 ± 0.24 h; the “total protein half-life in vivo” value under setting [12] amounted to 13.4 ± 1.4 h.

Regarding “MAIILGIDPGSRVTGYGVIRQVGRQLSYLGSGCIRTKVDDLPSRLKLIYAGVTEIITQFQPDYFAIEQVFMAKNADSALKLGQARGVAIVAAVNQELPVFEYAARQVKQTVVGIGSAEKSQVQHMVRTLLKLPANPQADAADALAIAITHCHVSQNAMQMSESRLNLARGRLR [P0A814]”, the “total protein half-life in vivo” value under setting [1] stood at 4.93 ± 0.29 h; the “total protein half-life in vivo” value under setting [2] came out at 3.57 ± 0.066 h; the “total protein half-life in vivo” value under setting [3] was determined as 3.29 ± 0.05 h; the “total protein half-life in vivo” value under setting [4] was 3.46 ± 0.7 h; the “total protein half-life in vivo” value under setting [5] was 4.18 ± 1.7 h; the “total protein half-life in vivo” value under setting [6] was found to be 2.26 ± 0.1 h. In addition, the “total protein half-life in vivo” value runs as follows: under setting [7], 4.34 ± 0.17 h; under setting [8], 6.6 ± 0.2 h; under setting [9], 3.56 ± 0.17 h; under setting [10], 5.21 ± 0.39 h; under setting [12], 6.3836 ± 0.0059 h.

Regarding “MLVSCAMRLHSGVFPDYAEKLPQEEKMEKEDSFPQRVWQIVAAIPEGYVTTYGDVAKLAGSPRAARQVGGVLKRLPEGSTLPWHRVVNRHGTISLTGPDLQRQRQALLAEGVMVSGSGQIDLQRYRWNY [P0AFP2]”, the “total protein half-life in vivo” value under setting [1] stood at 5.49 ± 0.093 h, the “total protein half-life in vivo” value under setting [7] came out at 4.04 h and the “total protein half-life in vivo” value under setting [8] was found to be 3.96 h.

As for “MSKSRLTVFSFVRRFLLRLMVVLAVFWGGGIALFSVAPVPFSAVMVERQVSAWLHGNFRYVAHSDWVSMDQISPWMGLAVIAAEDQKFPEHWGFDVASIEKALAHNERNENRIRGASTISQQTAKNLFLWDGRSWVRKGLEAGLTLGIETVWSKKRILTVYLNIAEFGDGVFGVEAAAQRYFHKPASKLTRSEAALLAAVLPNPLRFKVSSPSGYVRSRQAWILRQMYQLGGEPFMQQHQLD”, the “total protein half-life in vivo” value is, setting by setting: under setting [1], 7.03 h; under setting [2], 6.44 ± 0.48 h; under setting [3], 6.04 ± 0.026 h; under setting [5], 5.87 ± 0.34 h; under setting [6], 3.16 h; under setting [8], 10.8 ± 1.2 h. The “total protein half-life in vivo” value stood at 6.11 ± 0.23 h under setting [9], 12.3 ± 1.5 h under setting [10], 6.23 ± 0.25 h under setting [11] and 12.8 ± 0.19 h under setting [12].

For “MLTVIAEIRTRPGQHHRQAVLDQFAKIVPTVLKEEGCHGYAPMVDCAAGVSFQSMAPDSIVMIEQWESIAHLEAHLQTPHMKAYSEAVKGDVLEMNIRILQPGI [P0ADU2]”, the “total protein half-life in vivo” value reads like this: under setting [1], 5.001 ± 0.017 h; under setting [3], 4.57 ± 0.38 h; under setting [4], 5.31 ± 0.5 h; under setting [5], 4.72 ± 0.06 h; under setting [6], 3.14 ± 0.34 h; under setting [7], 5.35 ± 0.099 h. For the same sequence, the “total protein half-life in vivo” value is 10.4 ± 0.39 h under setting [8]; 4.36 ± 0.28 h under setting [9]; 7 ± 0.33 h under setting [10]; 5.84 ± 0.12 h under setting [11]; 11.6 ± 0.82 h under setting [12].

As for “MARAVHRSGLVALGIATALMASCAFAAKDVVVAVGSNFTTLDPYDANDTLSQAVAKSFYQGLFGLDKEMKLKNVLAESYTVSDDGITYTVKLREGIKFQDGTDFNAAAVKANLDRASDPANHLKRYNLYKNIAKTEAIDPTTVKITLKQPFSAFINILAHPATAMISPAALEKYGKEIGFYPVGTGPYELDTWNQTDFVKVKKFAGYWQPGLPKLDSITWRPVADNNTRAAMLQTGEAQFAFPIPYEQATLLEKNKNIELMASPSIMQRYISMNVTQKPFDNPKVREALNYAINRPALVKVAFAGYATPATGVVPPSIAYAQSYKPWPYDPVKARELLKEAGYPNGFSTTLWSSHNHSTAQKVLQFTQQQLAQVGIKAQVTAMDAGQRAAEVEGKGQKESGVRMFYTGWSASTGEADWALSPLFASQNWPPTLFNTAFYSNKQVDDFLAQALKTNDPAEKTRLYKAAQDIIWQESPWIPLVVEKLVSAHSKNLTGFWIMPDTGFSFEDADLQ”, the “total protein half-life in vivo” value under setting [1] came out at 5.029 ± 0.012 h; the “total protein half-life in vivo” value under setting [2] worked out at 5.36 ± 0.42 h; the “total protein half-life in vivo” value under setting [3] turned out to be 6.42 ± 0.61 h; the “total protein half-life in vivo” value under setting [4] is 6.43 ± 0.089 h; the “total protein half-life in vivo” value under setting [5] was 5.72 ± 0.071 h; the “total protein half-life in vivo” value under setting [6] came to 3.21 ± 0.061 h. Further, the “total protein half-life in vivo” value reads like this: under setting [7], 6.6 ± 0.26 h; under setting [8], 13 ± 0.86 h; under setting [9], 6.04 ± 0.39 h; under setting [10], 13.2 ± 0.28 h; under setting [11], 5.85 ± 0.27 h; under setting [12], 13.3 ± 0.87 h.

With “MRLFIAEKPSLARAIADVLPKPHRKGDGFIECGNGQVVTWCIGHLLEQAQPDAYDSRYARWNLADLPIVPEKWQLQPRPSVTKQLNVIKRFLHEASEIVHAGDPDREGQLLVDEVLDYLQLAPEKRQQVQRCLINDLNPQAVERAIDRLRSNSEFVPLCVSALARARADWLYGINMTRAYTILGRNAGYQGVLSVGRVQTPVLGLVVRRDEEIENFVAKDFFEVKAHIVTPADERFTAIWQPSEACEPYQDEEGRLLHRPLAEHVVNRISGQPAIVTSYNDKRESESAPLPFSLSALQIEAAKRFGLSAQNVLDICQKLYETHKLITYPRSDCRYLPEEHFAGRHAVMNAISVHAPDLLPQPVVDPDIRNRCWDDKKVDAHHAIIPTARSSAINLTENEAKVYNLIARQYLMQFCPDAVFRKCVIELDIAKGKFVAKARFLAEAGWRTLLGSKERDEENDGTPLPVVAKGDELLCEKGEVVERQTQPPRHFTDATLLSAMTGIARFVQDKDLKKILRATDGLGTEATRAGIIELLFKRGFLTKKGRYIHSTDAGKALFHSLPEMATRPDMTAHWESVLTQISEKQCRYQDFMQPLVGTLYQLIDQAKRTPVRQFRGIVAPGSGGSADKKKAAPRKRSAKKSPPADEVGSGAIA”, the “total protein half-life in vivo” value is, setting by setting: under setting [1], 5.31 ± 0.35 h; under setting [2], 2.48 ± 0.14 h; under setting [3], 1.843 ± 0.0066 h; under setting [4], 4.39 ± 0.75 h; under setting [5], 1.97 ± 0.14 h; under setting [6], 1.65 ± 0.098 h. Also, the “total protein half-life in vivo” value was found to be 3.12 ± 0.038 h under setting [7]; 3.27 ± 0.57 h under setting [8]; 2.32 ± 0.17 h under setting [9]; 3.255 ± 0.0094 h under setting [10]; 2.23 ± 0.41 h under setting [11]; 4.46 ± 1.1 h under setting [12].
